The supplement of paper PMC5998384

Key:
HeLa Kyoto [1] = assay: solubility change mitosis vs G1/S (difference of NP-40 vs SDS log2 ratios) (log2 ratio difference); higher = more soluble in mitosis
HeLa Kyoto [2] = assay: melting temperature (median over replicates), in situ; higher = more thermally stable
HeLa Kyoto [3] = assay: solubility in G1/S (NP-40 vs SDS abundance) (log2 ratio); higher = more soluble; settings: cell cycle stage: G1/S
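For melting temperature (median over replicates), in situ in this document: HeLa Kyoto cells synchronized by double thymidine or nocodazole block, proteins quantified by TMT10plex mass spectrometry, three independent biological replicates.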
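For solubility change mitosis vs G1/S (difference of NP-40 vs SDS log2 ratios) in this document: synchronized HeLa Kyoto cells (double thymidine block for G1/S, nocodazole release for mitosis), protein amounts in NP-40 versus SDS lysates quantified by mass spectrometry, three biological replicates.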
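For solubility in G1/S (NP-40 vs SDS abundance) in this document: HeLa Kyoto cells arrested at G1/S by double thymidine block, proteins quantified by TMT10plex mass spectrometry in mild NP-40 versus SDS extracts, three biological replicates.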

Sequence of TGOLN2 (chain, as listed by the source): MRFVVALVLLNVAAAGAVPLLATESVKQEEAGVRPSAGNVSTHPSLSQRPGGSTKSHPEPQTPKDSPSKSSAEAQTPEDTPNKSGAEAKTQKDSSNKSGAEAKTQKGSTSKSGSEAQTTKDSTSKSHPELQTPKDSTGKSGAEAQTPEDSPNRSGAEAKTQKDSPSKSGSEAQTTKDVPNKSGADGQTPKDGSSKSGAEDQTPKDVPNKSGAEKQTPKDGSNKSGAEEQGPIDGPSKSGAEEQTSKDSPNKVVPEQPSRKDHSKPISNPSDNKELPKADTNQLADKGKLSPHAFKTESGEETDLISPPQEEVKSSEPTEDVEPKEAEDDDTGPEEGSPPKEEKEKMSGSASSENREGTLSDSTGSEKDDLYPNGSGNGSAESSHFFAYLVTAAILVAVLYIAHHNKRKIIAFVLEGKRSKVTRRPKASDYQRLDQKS

Substance | solubility change mitosis (log2) (HeLa Kyoto [1]) | melting temperature (HeLa Kyoto [2]; cell cycle stage: G1/S) | melting temperature (HeLa Kyoto [2]; cell cycle stage: mitosis) | solubility in G1/S (log2) (HeLa Kyoto [3])
MYQDYPGNFDTSSRGSSGSPAHAESYSSGGGGQQKFRVDMPGSGSAFIPTINAITTSQDLQWMVQPTVITSMSNPYPRSHPYSPLPGLASVPGHMALPRPGVIKTIGTTVGRRRRDEQLSPEEEEKRRIRRERNKLAAAKCRNRRRELTEKLQAETEELEEEKSGLQKEIAELQKEKEKLEFMLVAHGPVCKISPEERRSPPAPGLQPMRSGGGSVGAVVVKQEPLEEDSPSSSSAGLDKAQRSVIKPISIAGGFYGEEPLHTPIVVTSTPAVTPGTSNLVFTYPSVLEQESPASPSESCSKAHRRSSSSGDQSSDSLNSPTLLAL [FOSL2] | 0.106 | 53.9 °C | 55.1 °C | 0.191
MSEEEQGSGTTTGCGLPSIEQMLAANPGKTPISLLQEYGTRIGKTPVYDLLKAEGQAHQPNFTFRVTVGDTSCTGQGPSKKAAKHKAAEVALKHLKGGSMLEPALEDSSSFSPLDSSLPEDIPVFTAAAAATPVPSVVLTRSPPMELQPPVSPQQSECNPVGALQELVVQKGWRLPEYTVTQESGPAHRKEFTMTCRVERFIEIGSGTSKKLAKRNAAAKMLLRVHTVPLDARDGNEVEPDDDHFSIGVGSRLDGLRNRGPGCTWDSLRNSVGEKILSLRSCSLGSLGALGPACCRVLSELSEEQAFHVSYLDIEELSLSGLCQCLVELSTQPATVCHGSATTREAARGEAARRALQYLKIMAGSK [TARBP2] | 0.129 |  | 51.7 °C | 0.152
CHD9 | 0.0275 |  | 50.1 °C | -0.312
TGOLN2 | 0.881 | 59.5 °C | 53.9 °C | -0.315
MELERIVSAALLAFVQTHLPEADLSGLDEVIFSYVLGVLEDLGPSGPSEENFDMEAFTEMMEAYVPGFAHIPRGTIGDMMQKLSGQLSDARNKENLQPQSSGVQGQVPISPEPLQRPEMLKEETRSSAAAAADTQDEATGAEEELLPGVDVLLEVFPTCSVEQAQWVLAKARGDLEEAVQMLVEGKEEGPAAWEGPNQDLPRRLRGPQKDELKSFILQKYMMVDSAEDQKIHRPMAPKEAPKKLIRYIDNQVVSTKGERFKDVRNPEAEEMKATYINLKPARKYRFH [CUEDC2] | 0.134 | 46.8 °C | 51.7 °C | 0.417
MAENHCELLSPARGGIGAGLGGGLCRRCSAGLGALAQRPGSVSKWVRLNVGGTYFLTTRQTLCRDPKSFLYRLCQADPDLDSDKDETGAYLIDRDPTYFGPVLNYLRHGKLVINKDLAEEGVLEEAEFYNITSLIKLVKDKIRERDSKTSQVPVKHVYRVLQCQEEELTQMVSTMSDGWKFEQLVSIGSSYNYGNEDQAEFLCVVSKELHNTPYGTASEPSEKAKILQERGSRM [KCTD5] | -0.0362 | 56.7 °C | 57.5 °C | 0.136
MRASLLLSVLRPAGPVAVGISLGFTLSLLSVTWVEEPCGPGPPQPGDSELPPRGNTNAARRPNSVQPGAEREKPGAGEGAGENWEPRVLPYHPAQPGQAAKKAVRTRYISTELGIRQRLLVAVLTSQTTLPTLGVAVNRTLGHRLERVVFLTGARGRRAPPGMAVVTLGEERPIGHLHLALRHLLEQHGDDFDWFFLVPDTTYTEAHGLARLTGHLSLASAAHLYLGRPQDFIGGEPTPGRYCHGGFGVLLSRMLLQQLRPHLEGCRNDIVSARPDEWLGRCILDATGVGCTGDHEGVHYSHLELSPGEPVQEGDPHFRSALTAHPVRDPVHMYQLHKAFARAELERTYQEIQELQWEIQNTSHLAVDGDQAAAWPVGIPAPSRPASRFEVLRWDYFTEQHAFSCADGSPRCPLRGADRADVADVLGTALEELNRRYHPALRLQKQQLVNGYRRFDPARGMEYTLDLQLEALTPQGGRRPLTRRVQLLRPLSRVEILPVPYVTEASRLTVLLPLAAAERDLAPGFLEAFATAALEPGDAAAALTLLLLYEPRQAQRVAHADVFAPVKAHVAELERRFPGARVPWLSVQTAAPSPLRLMDLLSKKHPLDTLFLLAGPDTVLTPDFLNRCRMHAISGWQAFFPMHFQAFHPAVAPPQGPGPPELGRDTGRFDRQAASEACFYNSDYVAARGRLAAASEQEEELLESLDVYELFLHFSSLHVLRAVEPALLQRYRAQTCSARLSEDLYHRCLQSVLEGLGSRTQLAMLLFEQEQGNST [CHPF] | 0.15 | 53.4 °C | 52 °C | -0.013
MAVCGLGSRLGLGSRLGLRGCFGAARLLYPRFQSRGPQGVEDGDRPQPSSKTPRIPKIYTKTGDKGFSSTFTGERRPKDDQVFEAVGTTDELSSAIGFALELVTEKGHTFAEELQKIQCTLQDVGSALATPCSSAREAHLKYTTFKAGPILELEQWIDKYTSQLPPLTAFILPSGGKISSALHFCRAVCRRAERRVVPLVQMGETDANVAKFLNRLSDYLFTLARYAAMKEGNQEKIYMKNDPSAESEGL [MMAB] | 0.126 | 51.8 °C | 55.8 °C | 0.574
MASSASARTPAGKRVINQEELRRLMKEKQRLSTSRKRIESPFAKYNRLGQLSCALCNTPVKSELLWQTHVLGKQHREKVAELKGAKEASQGSSASSAPHSVKRKAPDADDQDVKRAKATLVPQVQPSTSAWTTNFDKIGKEFIRATPSKPSGLSLLPDYEDEEEEEEEEEGDGERKRGDASKPLSDAQGKEHSVSSSREVTSSVLPNDFFSTNPPKAPIIPHSGSIEKAEIHEKVVERRENTAEALPEGFFDDPEVDARVRKVDAPKDQMDKEWDEFQKAMRQVNTISEAIVAEEDEEGRLDRQIGEIDEQIECYRRVEKLRNRQDEIKNKLKEILTIKELQKKEEENADSDDEGELQDLLSQDWRVKGALL [ZNF830] | 0.0142 | 56.2 °C | 54.4 °C | 0.423
